Data: US12454527B2, “Conjugate monomethyl auristatin E to obtain a composition for treatment of prostate cancer” (priority 2019, dated 2025)
“And” between values parts separate entries of the source, which are not always exact repeats. Identical values can stand only once. Like-named read-outs stand apart in the source and are kept apart here. Starred links: 1 amine or outer side, 2 acyl side, 3 side chain; linkers in the order of their positions; H or OH if unused. Non-standard residues stand in square brackets, D forms with d. Residues, ends and D or L forms follow the SMILES beside them. ξ: configuration not given here. *: point of attachment. GluureaLys(ε-3-ClBenzyl) = O=C(O)CC[C@H](NC(=O)N[C@@H](CCCCN(Cc1cccc(Cl)c1)*)C(=O)O)C(=O)O; Dolaproine = CO[C@@H]([C@@H]1CCCN1)[C@@H](C)C(=O)O; Dil = CC[C@H](C)[C@H](NC)[C@@H](CC(=O)O)OC; X1 = O=C(CCCc1cn(CCCN[*:1])nn1)[*:2]; PABC = O=C(OCc1ccc(N[*:1])cc1)[*:2]; X2 = C[C@@H](N*)[C@@H](O)c1ccccc1; Cit = NC(=O)NCCC[C@H](N)C(=O)O; Suc = O=C(CCC(=O)[*:2])[*:1]; NMeV = CN[C@H](C(=O)O)C(C)C; ξV = CC(C)C(N)C(=O)O; Ahx = NCCCCCC(=O)O

Assay: Pharmacokinetics in plasma of rabbits after a single injection; on T1/2: dose 0.81 mg/kg; on Vd: dose 0.81 mg/kg
Type: in vivo
Excerpt: The pharmacokinetics study for the Conjugate (I) product in plasma of rabbits and rats after a single injection.
The leporids and rodents are the standard targets for preclinical studies of potential drug products as well as determining the pharmacokinetic parameters. The rabbits and rats are recommended as test systems to study pharmacokinetic properties of pharmaceutical products by the regulatory documents (FIG. 7, FIG. 8).
[…] The pharmacokinetic data, determined from this number of test animals, are sufficient to obtain the primary quantitative characteristics of test product distribution and elimination and the calculation of descriptive statistics parameters.
• 1. Conjugate (1) • 2. Solubilizer Pluronic F127—in the amount, five-fold greater than the conjugate amount by weight. • 3, Diluent—Haemodes infusion solution. • Dimethyl sulfoxide—in the amount of 5% of the prepared volume. • Rabbit experiment (see Tables 5, 6), • Rat experiment (see Tables 7, 8).

[1] = male, Soviet Chinchilla, rabbit, plasma, rabbits N=6, read-out: Concentration in blood plasma, Geometr. mean
[2] = male, Soviet Chinchilla, rabbit, plasma, rabbits N=6, read-out: Concentration in blood plasma, Mean value
[3] = male, Soviet Chinchilla, rabbit, plasma, rabbits N=6, read-out: Concentration in blood plasma, Median
[4] = male, Soviet Chinchilla, rabbit, plasma, rabbits, read-out: Concentration in blood plasma (individual animals)

CC[C@H](C)[C@@H]([C@@H](CC(=O)N1CCC[C@H]1[C@H](OC)[C@@H](C)C(=O)N[C@H](C)[C@@H](O)c1ccccc1)OC)N(C)C(=O)[C@@H](NC(=O)[C@H](C(C)C)N(C)C(=O)OCc1ccc(NC(=O)[C@H](CCCNC(N)=O)NC(=O)C(NC(=O)CCCc2cn(CCCNC(=O)[C@H](Cc3ccc(O)cc3)NC(=O)[C@H](Cc3ccccc3)NC(=O)CCC(=O)NCCCCCC(=O)N(CCCC[C@H](NC(=O)N[C@@H](CCC(=O)O)C(=O)O)C(=O)O)Cc3cccc(Cl)c3)nn2)C(C)C)cc1)C(C)C (some centres unmarked) [Conjugate (I)] ({GluureaLys(ε-3-ClBenzyl)-Ahx-Suc}-FY[X1][ξV][Cit][PABC][NMeV]V[Dil][Dolaproine]-X2)
level at 4 h (male, Soviet Chinchilla, rabbit, plasma, rabbits N=6, 4.00 hour, read-out: Concentration in blood plasma, Median): 2540 ng/mL
level at 6 h [1]: 1510 ng/mL
level at 6 h [2]: 1540 ng/mL
level at 6 h [3]: 1620 ng/mL
level at 8 h (male, Soviet Chinchilla, rabbit, plasma, rabbits N=6, 8.00 hour, read-out: Concentration in blood plasma, Geometr. mean): 1180 ng/mL
level at 8 h (male, Soviet Chinchilla, rabbit, plasma, rabbits N=6, 8.00 hour, read-out: Concentration in blood plasma, Mean value): 1210 ng/mL
level at 10 h [1]: 857 ng/mL
level at 10 h [2]: 878 ng/mL
level at 10 h [3]: 892 ng/mL
level at 12 h [1]: 631 ng/mL
level at 12 h [2]: 657 ng/mL
level at 12 h [3]: 558 ng/mL
C0 (male, Soviet Chinchilla, rabbit, plasma, rabbits N=6, read-out: C0, Geometr. mean): 10900 ng/mL
C0 (male, Soviet Chinchilla, rabbit, plasma, rabbits N=6, read-out: C0, Mean value): 11100 ng/mL
clearance (male, Soviet Chinchilla, rabbit, plasma, rabbits N=6, read-out: CI, Geometr. mean (converted)): 0.389 mL/min/kg
clearance (male, Soviet Chinchilla, rabbit, plasma, rabbits N=6, read-out: CI, Mean value (converted)): 0.394 mL/min/kg
clearance (male, Soviet Chinchilla, rabbit, plasma, rabbits N=6, read-out: CI, Median (converted)): 0.374 mL/min/kg
level at 0.08 h (male, Soviet Chinchilla, rabbit, plasma, rabbits, 0.08 hour, read-out: Concentration in blood plasma (individual animals)): 9580 ng/mL
level at 0.25 h (male, Soviet Chinchilla, rabbit, plasma, rabbits, 0.25 hour, read-out: Concentration in blood plasma (individual animals)): 10700 ng/mL
level at 0.5 h (male, Soviet Chinchilla, rabbit, plasma, rabbits, 0.50 hour, read-out: Concentration in blood plasma (individual animals)): 7250 ng/mL
level at 1 h (male, Soviet Chinchilla, rabbit, plasma, rabbits, 1.00 hour, read-out: Concentration in blood plasma (individual animals)): 5100 ng/mL
level at 1.5 h (male, Soviet Chinchilla, rabbit, plasma, rabbits, 1.50 hour, read-out: Concentration in blood plasma (individual animals)): 4850 ng/mL
level at 2 h (male, Soviet Chinchilla, rabbit, plasma, rabbits, 2.00 hour, read-out: Concentration in blood plasma (individual animals)): 3840 ng/mL
level at 6 h [4]: 1310 ng/mL
level at 8 h (male, Soviet Chinchilla, rabbit, plasma, rabbits, 8.00 hour, read-out: Concentration in blood plasma (individual animals)): 1360 ng/mL
level at 10 h [4]: 859 ng/mL
AUCt-∞/AUC0-∞, Geometr. mean (rabbits N=6): 11.364%
AUCt-∞/AUC0-∞, Mean value (rabbits N=6): 12.690%
AUCt-∞/AUC0-∞, Median (rabbits N=6): 13.29%
C0, Median (rabbits N=6): 9880 ng/mL
Kel, Geometr. mean (rabbits N=6): 0.160 h⁻¹
Kel, Mean value (rabbits N=6): 0.170 h⁻¹
Kel, Median (rabbits N=6): 0.153 h⁻¹
Concentration in blood plasma, Geometr. mean (rabbits N=6, 1.50 hour): 5046 ng/mL
Concentration in blood plasma, Median (rabbits N=6, 8.00 hour): 1195 ng/mL
Concentration in blood plasma (individual animals) (rabbits, 0.08 hour): 9617 ng/mL
Concentration in blood plasma (individual animals) (rabbits, 2.00 hour): 3781 ng/mL
Concentration in blood plasma (individual animals) (rabbits, 3.00 hour): 3693 ng/mL
AUC0-t (rabbits, individual animals): 39504 ng·h/mL and 21886 ng·h/mL and 33617 ng·h/mL and 28972 ng·h/mL and 28872 ng·h/mL
AUC0-∞ (rabbits, individual animals): 42004 ng·h/mL and 26025 ng·h/mL and 39814 ng·h/mL and 36928 ng·h/mL and 30768 ng·h/mL
AUCt-∞/AUC0-∞ (rabbits, individual animals): 11.01% and 5.95% and 15.90% and 15.57% and 21.54% and 6.16%
C0 (rabbits, individual animals): 17049 ng/mL and 9815 ng/mL and 9947 ng/mL and 9624 ng/mL and 9582 ng/mL
CI (rabbits, individual animals): 0.3827 mL/min/kg and 0.3213 mL/min/kg and 0.5187 mL/min/kg and 0.339 mL/min/kg and 0.3655 mL/min/kg and 0.4388 mL/min/kg
Kel (rabbits, individual animals): 0.137 h⁻¹ and 0.234 h⁻¹ and 0.123 h⁻¹ and 0.168 h⁻¹ and 0.099 h⁻¹ and 0.256 h⁻¹
MRT0-t (rabbits, individual animals): 3.14 h and 3.29 h and 3.88 h and 3.74 h and 3.46 h
T1/2 (rabbits, individual animals): 5.06 h and 2.97 h and 5.63 h and 4.12 h and 7.01 h and 2.70 h
Vd (rabbits, individual animals): 0.16766 L/kg and 0.08255 L/kg and 0.2526 L/kg and 0.12101 L/kg and 0.22174 L/kg and 0.1027 L/kg
